Biological target: 23 amino acid synthetic peptide corresponding to the M2e domain of A/Fort Worth/1/50 (H1N1) (Influenza A virus A/Fort Worth/1/50 (H1N1))
Assay: ELISA, 23mer M2e peptide coated at 1 µg/mL (FIG. 14b)

chimeric mouse V-region/human IgG1 kappa 14C2 antibody
EC50: 0.01 µg/mL

Reference: patent US20110033476A1 (published 2011)
